Source: article PMC8016844

Key:
Grb2 (Homo sapiens) = Grb2 (Homo sapiens) (UniProt P62993); settings: cited from earlier work
[1] = biological target: isolated CSH3 domain of Grb2 (Grb2_(CSH3)); experiment: MST; target protein labelled with Atto 488 NHS ester, 100 nM; unlabelled ligand serially diluted; Monolith NT.115; 25 °C; 20 mM HEPES pH 7.5, 150 mM NaCl, 0.5 mM TCEP, 0.005% Tween 20
[2] = biological target: Shp2 N-terminal SH2 domain (Shp2_(NSH2)) (UniProt Q06124); experiment: as above

Substance	Kd [1] [µM]	also measured
Grb2 (from UniProt P62993)		Kd (Grb2 (Homo sapiens)): 0.8 µM
Shp2 PTP domain peptide TKCNNS322KPKK325SYIATQ	173	
Shp2 PTP domain peptide VERGKS366KCVK369YWPDEY	122	
Shp2 PTP domain peptide WPDHGV429PSDP432GGVLDF	18.1	
isolated CSH3 domain of Grb2 (Grb2_(CSH3)) (domain or fragment)		Kd [2]: 207 µM
